B1: mAb10986 (antibody, V domains shown)
VH: EVQLVESGGGLVQPGGSLRLSCAASEFTVSSNYMSWVRQAPGKGLEWVSVIYSGGSTFYADSVKGRFTISRDNSKNTLYLQMNSLRAEDTAVYYCARALPYGDLHFDYWGQGTLVTVSS
VL: QSVLTQPPSVSGAPGQRVTISCTGSSSNIGTGYDVHWYQQLPGTAPKLLIYGNTNRPSGVPDRFSGSKSGTSASLAITGLQAEDEADYYCQSYDSSLSDSYVFGTGTKVTVLG
B2: mAb10913 (antibody, V domains shown)
VH: EVQLVESGGGLVQPGGSLRLSCAASGFTFRNYEMNWVRQAPGKGLEWVSYITSSGSTMYYADSVKGRFTISRDNAKNSLYLQMNSLRAEDTAVYYCARDGFYYYYAMDVWGQGTTVTVSS
VL: QSVLTQPPSVSAAPGQKVTISCSGSSSNIGNNYVSWYQQLPGTAPKLLIYDNNKRPSGIPDRFSGSKSGTSATLGITGLQTGDEADYYCGTWDSSLSVGRVFGTGTKVTVLG
B3: mAb10914 (antibody, V domains shown)
VH: EVQLVESGGGLVQPGGSLRLSCAASGLIVSRNYMIWVRQAPGKGLEWVSVIYSGGSTFYADSVKGRFTISRHNSKNTLYLQMNSLRAEDTAVYYCARDLGTGGMDVWGQGTTVTVSS
VL: DIQLTQSPSFLSASVGDRVTITCWASQGISSYLAWYQQKPGKAPKLLIYAASTLQSGVPSRFSGSGSGTEFTLTISSLQPEDFATYYCQQLNSYPLTFGGGTKVEIKR

Key:
[1] = target: SARS-CoV-2 spike protein (S-wt, Wuhan-Hu-1, NCBI Accession Number MN908947.3) on VSV-SARS-CoV-2-S … (SARS-CoV-2, UniProt P0DTC2 14-1273); assay: cell-based or functional assay
[2] = target: T1, MERS-CoV (SARS-CoV-2) Spike Protein S2 (aa 726-1296, His Tag) (Sino 40070-[change]) (MERS-CoV, UniProt K9N5Q8 726-1296); assay: Luminex bead assay, supernatant on antigen microspheres
T1 sequence: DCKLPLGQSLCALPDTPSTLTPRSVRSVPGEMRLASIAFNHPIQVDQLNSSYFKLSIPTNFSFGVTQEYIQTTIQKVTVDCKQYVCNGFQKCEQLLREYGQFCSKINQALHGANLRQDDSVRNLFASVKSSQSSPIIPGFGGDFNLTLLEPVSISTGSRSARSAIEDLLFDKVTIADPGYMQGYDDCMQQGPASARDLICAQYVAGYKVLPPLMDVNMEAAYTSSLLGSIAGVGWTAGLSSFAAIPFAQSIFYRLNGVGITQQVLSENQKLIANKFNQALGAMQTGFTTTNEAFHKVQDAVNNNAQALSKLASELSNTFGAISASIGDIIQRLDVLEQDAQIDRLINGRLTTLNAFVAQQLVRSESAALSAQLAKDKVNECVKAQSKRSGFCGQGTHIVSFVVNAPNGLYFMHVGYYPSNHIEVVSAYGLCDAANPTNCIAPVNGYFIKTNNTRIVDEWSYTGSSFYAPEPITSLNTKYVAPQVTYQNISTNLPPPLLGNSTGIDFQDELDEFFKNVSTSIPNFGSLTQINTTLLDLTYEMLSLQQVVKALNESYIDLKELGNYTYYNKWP

[3] = target: T2, MERS-CoV (SARS-CoV-2) Spike Protein (ECD, aa 1-1297, His Tag) (Sino 40069-[change]) (MERS-CoV, UniProt K9N5Q8 18-1297); assay: as above
T2 sequence: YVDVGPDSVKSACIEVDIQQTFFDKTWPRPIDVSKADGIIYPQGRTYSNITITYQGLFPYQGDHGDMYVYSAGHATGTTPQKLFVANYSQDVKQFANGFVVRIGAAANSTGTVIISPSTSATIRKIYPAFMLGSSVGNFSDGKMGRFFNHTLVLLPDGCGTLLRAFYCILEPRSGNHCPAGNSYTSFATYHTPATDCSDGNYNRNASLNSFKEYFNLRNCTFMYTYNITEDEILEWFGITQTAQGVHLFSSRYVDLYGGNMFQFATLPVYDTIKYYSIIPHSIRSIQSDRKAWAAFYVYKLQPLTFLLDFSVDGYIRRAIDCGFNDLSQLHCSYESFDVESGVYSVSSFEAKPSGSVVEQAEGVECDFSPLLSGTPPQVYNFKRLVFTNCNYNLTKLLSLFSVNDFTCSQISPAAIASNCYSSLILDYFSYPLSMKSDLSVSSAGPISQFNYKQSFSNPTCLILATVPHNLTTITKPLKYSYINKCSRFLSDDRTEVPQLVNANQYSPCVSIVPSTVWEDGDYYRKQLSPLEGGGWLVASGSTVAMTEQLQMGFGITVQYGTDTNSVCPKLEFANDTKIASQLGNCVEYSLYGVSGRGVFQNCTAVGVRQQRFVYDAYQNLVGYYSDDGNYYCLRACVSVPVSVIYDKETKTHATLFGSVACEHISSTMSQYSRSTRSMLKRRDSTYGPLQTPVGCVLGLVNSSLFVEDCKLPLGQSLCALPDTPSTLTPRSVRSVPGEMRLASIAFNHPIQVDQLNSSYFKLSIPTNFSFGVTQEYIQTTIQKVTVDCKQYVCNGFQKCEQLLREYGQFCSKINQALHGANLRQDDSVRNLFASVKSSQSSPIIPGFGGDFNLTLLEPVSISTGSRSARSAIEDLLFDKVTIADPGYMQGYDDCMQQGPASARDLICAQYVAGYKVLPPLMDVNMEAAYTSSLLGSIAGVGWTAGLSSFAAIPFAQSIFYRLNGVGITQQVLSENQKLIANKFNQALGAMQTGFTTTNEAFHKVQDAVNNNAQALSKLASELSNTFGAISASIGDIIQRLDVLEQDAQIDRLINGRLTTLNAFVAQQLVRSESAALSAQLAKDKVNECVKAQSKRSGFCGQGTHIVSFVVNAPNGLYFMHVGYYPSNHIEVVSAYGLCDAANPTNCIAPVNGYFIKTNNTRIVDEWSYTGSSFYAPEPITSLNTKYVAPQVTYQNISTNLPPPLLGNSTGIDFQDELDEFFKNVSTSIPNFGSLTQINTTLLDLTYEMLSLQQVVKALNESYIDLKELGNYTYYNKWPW

Binder | mAb neutralization potency (IC50 (M)) [1] [M] | Binding signal (MFI) [2] [MFI] | Binding signal (MFI) [3] [MFI]
B1 | 9.91e-11 |  | 
B2 |  | 26 | 20
B3 |  | 28 | 19

Source: patent publication US20220356230A1 (published 2022)
